Measured values published in patent publication US11389509B1, “Methods for treatment of social dysfunction neurological disorders and seizures” (University of Virginia Patent Foundation, priority 2017, dated 2022).
Entries after “also recorded” stand apart in the source; their conditions may differ.

What was measured:
mice [1] = assay: Three-chamber sociability assay; format: in vivo, mouse; settings: for social deficits / social behavior / social preference / social deficits: Ifng−/− mice; for social deficits / social behavior: diazepam 1.25 mg/kg i.p. 30 minutes prior to testing; for social preference / social deficits: single CSF (i.c.m.) injection of IFN-γ 20 ng, tested 24 hours post-injection
Experimental: The three-chamber sociability test was conducted as previously described^31. Briefly, mice were transported to the testing room and habituated for at least one hour. The room was maintained in dim light and a white noise generator used to mitigate any unforeseen noises. Test boxes were fabricated, in-house, by a machine shop. Test mice were placed in the center chamber with the two outer chambers containing empty wire cages (Spectrum Diversified Designs) and allowed to explore for ten minutes (habituation phase). After the habituation phase, mice were return to the center chamber. A novel mouse (an 8-10 week old male C57BL/6J˜18-22 g) was placed under one cup and an object placed under the other. Prior to testing, the novel mouse was habituated to the cup by being placed under the cup for 10 minutes, 3 times a day for 5 days. Mice were allowed to explore for an additional ten minutes (social phase). A video tracking system (CleverSys) was used to quantify the time spent around each target. For 3-chamber experiments comparing social behavior between wild-type and SCID mice, data collected using males and females were combined because no significant effects were found between genders.
A rat monoclonal antibody to murine VLA4 (clone PS/2) was affinity purified from hybridoma supernatants and was used with the kind permission of Dr. Klaus Ley (La Jolla Institute of Allergy and Immunology, San Diego, Calif.). Mice were given two separate injections (i.p.; 0.2 mg in saline per mouse), four days apart, of either anti-VLA4 or rat anti-HRP for control (clone HRPN; BioXcell), then tested twenty-four hours post final injection.
(§1) Mice were anaesthetized with a ketamine/xylazine [ketamine (100 mg/kg) and xylazine (10 mg/kg)] injection (i.p.) or isoflurane (2%), then placed into a stereotaxic frame with the head at an approximately 45° angle. The skin above cisterna magna was cleaned and sanitize before a 1 cm incision was made. The underlying muscles were separated with forceps, retracted, and a small Hamilton syringe (33 G) was used to slowly inject 1 uL of saline or IFN-γ (20 ng; eBioscience) into the cisterna magna (i.c.m.). After injection the syringe was held in place for 5 minutes to avoid back-flow of CSF. After the syringe was removed, muscles were put back in place and skin was sutured. Mice were placed on a heating pad and given ketoprofen and baytril for recovery.
Diazepam (1.25 mg/kg) was delivered i.p. for 30 minutes prior to testing for social behavior.

mice [2] = assay: PTZ induced seizures; format: in vivo, mouse; settings: IFN-γ i.c.m. 24 hours prior to PTZ 40 mg/kg i.p.
Experimental: IFN-γ was injected (i.c.m.) into the CSF through the cisterna magna (i.c.m.), as described above, 24 hours prior to inducing seizures. Control mice were injected with the same volume of saline. To induce seizures, mice were injected with PTZ (40 mg/kg; i.p.). After injection, mice were placed into an empty housing cage and recorded for video analysis. Seizures were analyzed by a blinded observer using a behavior scoring system previously published^41.

[3] = tested on: layer 2/3 prefrontal cortical neurons; assay: Whole-cell patch-clamp of tonic inhibitory currents in acute brain slices; format: cell-based, mouse
Experimental: Visualized whole-cell patch-clamp recordings were performed on layer 2/3 prefrontal cortical neurons prepared from acute brain slices (adult) using the protective recovery method^42. Recordings were performed in 34° C. artificial cerebrospinal fluid (ACSF) containing (in mM) 131.5 NaCl, 25 NaHCO3, 12 D-glucose, 2.5 KCl, 1.25 NaH2PO4, 2 CaCl2, and 1 MgCl2. ACSF also contained 3 mM kynurenic acid to block synaptic excitation and […] NO-711 to enhance tonic inhibition^43. Slices were incubated in this ACSF for 5-10 minutes prior to placement in the recording chamber. The patch pipette solution with elevated chloride contained (in mM) 140 CsCl, 4 NaCl, 1 MgCl2, 10 HEPES, 0.05 EGTA, 2 Mg-ATP, and 0.4 Mg-GTP^43. Once recordings equilibrated, baseline holding current in ACSF was measured for 3.5 minutes, after which ACSF containing IFN-γ (20 pg/mL) was applied for 8.5 minutes and then washed. Data presented show the mean holding current during the last minute of control (ACSF) and drug (ACSF+IFN-γ) conditions.

Ifng−/− mice = assay: Resting-state fMRI functional connectivity of PFC/insular nodes; format: in vivo, mouse; settings: single injection of recombinant IFN-γ into the CSF
Excerpt: The protocol for rsfMRI was adapted from Zhan et al.^32. Mice were maintained under light anesthesia with (1-1.25%) isoflurane and images were acquired on a 7.0 Tesla MRI Clinscan system (Bruker, Etlingen, Germany) using a 30-mm inner-diameter mouse whole-body radiofrequency coil. High-resolution structural images were acquired by collecting 16×0.7 mm thick coronal slices using TR/TE 5,500/65 ms and an […]. A BOLD rsfMRI time series of 16×0.7 mm thick coronal slices were collected using TR/TE 4,000/17 ms and a 60o flip angle. For analysis, a structural template^33 was custom labeled using “The Mouse Brain” by Paxinos and Franklin as reference (FIGS. 6A-6C). The non-rigid transformation between the template and each individual mouse was estimated using the open source Advanced Normalization Tools (ANTs) package^34 that was then used to propagate the regional labels to each subject. […] The correlation matrix was determined from the clean fMRI data using the regions labels. […] When comparing networks from multiple sample groups, the threshold was determined by calculating the maximum threshold that leaves one of the networks connected (i.e., it is possible to reach any node in the network from any other node). […]

[4] = tested on: layer I neocortical neurons; assay: c-fos immunohistochemistry in PFC after CSF injection; format: in vivo, mouse; settings: IFN-γ injected into the CSF (i.c.m.) 2 hours prior to sacrificing
Experimental: Mice were sacrificed under Euthasol then transcardially perfused with PBS with heparin. Brains were removed and drop fixed in 4% PFA for 48 hours. After fixation, brains were washed with PBS, cryoprotected with 30% sucrose, then frozen in O.C.T. compound (Sakura Finetek) and sliced ([…]) with a cryostat (Leica). Free-floating sections were maintained in PBS+Azide (0.02%) until further processing. Immunohistochemistry for c-fos (1:1000 dilution; Millipore) on free-floating sections was performed as previously described^39.
as §1

Molecule | social deficits / social behavior (mice [1]) | social deficits / social behavior (mice [1]; listed as Diazepam) | social deficits (mice [1]; Ifngr1−/− mice, IFN-γ injected into the CSF) | social preference / social deficits (mice [1]) | social preference / social deficits (mice [1]; listed as recombinant IFN-γ) | latency to reach each seizure stage / seizure onset (mice [2]) | maximum severity of seizures (mice [2]) | susceptibility to PTZ induced seizures (mice [2]) | tonic inhibition ([3]; VgatCre::Ifngr1fl/fl line, Cre− mice) | tonic inhibitory current ([3]; VgatCre::Ifngr1 fl/fl mice (IFN-γ receptor deleted from inhibitory neurons)) | tonic GABAergic inhibitory current (holding current) ([3]; slices from wild-type mice, IFN-γ 20 pg/mL in ACSF for 8.5 minutes) | hyper-connectivity in the PFC (connections of local PFC/insular nodes) (Ifng−/− mice; Jennrich test P=0.02) | hyper-connectivity in the PFC (connections of local PFC/insular nodes) (Ifng−/− mice; Jennrich test P=0.02, listed as recombinant IFN-γ) | c-fos+ cells in layer I of the PFC [4] | c-fos+ cells in layer I of the PFC ([4]; listed as recombinant IFN-γ)
CN1C(=O)CN=C(c2ccccc2)c2cc(Cl)ccc21 [diazepam, reference compound] | rescued social deficits | successfully rescued social behavior |  |  |  |  |  |  |  |  |  |  |  |  | 
IFN-γ: recombinant interferon-gamma cytokine (eBioscience), injected into the CSF via cisterna magna (protein, UniProt P01580 23-155, looked up) Interferon gamma: HGTVIESLESLNNYFNSSGIDVEEKSLFLDIWRNWQKDGDMKILQSQIISFYLRLFEVLKDNQAISNNISVIESHLITTFFSNSKAKKDAFMSIAKFEVNNPQVQRQAFNELIRVVHQLLPESSLRKRKRSRC |  |  | not rescued | sufficient to rescue social deficits | sufficient to restore their social preference | increased latency to reach each seizure stage; also recorded: delayed seizure onset | reduced the maximum severity of seizures; also recorded: lowered seizure severity | less susceptible to PTZ induced seizures | increased tonic inhibition | prevented IFN-γ from augmenting tonic inhibitory current | increases tonic GABAergic inhibitory current; also recorded: augmented tonic current | connections were reduced | reduce overall hyper-connectivity in the PFC | increased the number of c-fos+ cells in Layer I of the PFC | activated layer I neocortical neurons
